Article doi:10.1101/430835 (bioRxiv, 2019)
Values joined by “and” are separate entries in the source; they are usually repeats but may differ in a detail not shown here. Identical values can stand only once.

Target: the molecule itself
Assay: native gel or EMSA

Protein | stoichiometry N
Uncoupling protein 2 (UCP2) (natural protein, human, UniProt P55851 1-309, looked up) MVGFKATDVPPTATVKFLGAGTAACIADLITFPLDTAKVRLQIQGESQGPVRATASAQYRGVMGTILTMVRTEGPRSLYNGLVAGLQRQMSFASVRIGLYDSVKQFYTKGSEHASIGSRLLAGSTTGALAVAVAQPTDVVKVRFQAQARAGGGRRYQSTVNAYKTIAREEGFRGLWKGTSPNVARNAIVNCAELVTYDLIKDALLKANLMTDDLPCHFTSAFGAGFCTTVIASPVDVVKTRYMNSALGQYSSAGHCALTMLQKEGPRAFYKGFMPSFLRLGSWNVVMFVTYEQLKRALMAACTSREAPF | 2 and 4
bovine ADP/ATP carrier protein isoform 1 (AAC1) (natural protein) SDQALSFLKDFLAGGVAAAISKTAVAPIERVKLLLQVQHASKQISAEKQYKGIIDCVVRIPKEQGFLSFWRGNLANVIRYFPTQALNFAFKDKYKQIFLGGVDRHKQFWRYFAGNLASGGAAGATSLCFVYPLDFARTRLAADVGKGAAQREFTGLGNCITKIFKSDGLRGLYQGFNVSVQGIIIYRAAYFGVYDTAKGMLPDPKNVHIIVSWMIAQTVTAVAGLVSYPFDTVRRRMMMQSGRKGADIMYTGTVDCWRKIAKDEGPKAFFKGAWSNVLRGMGGAFVLVLYDEIKKFV | 2
